Experimental findings from IntAct's records for PubMed 23858060 are described below.

B1: Galactose/lactose metabolism regulatory protein GAL80 (Saccharomyces cerevisiae), P04387 (parent)
chain: MDYNKRSSVSTVPNAAPIRVGFVGLNAAKGWAIKTHYPAILQLSSQFQITALYSPKIETSIATIQRLKLSNATAFPTLESFASSSTIDMIVIAIQVASHYEVVMPLLEFSKNNPNLKYLFVEWALACSLDQAESIYKAAAERGVQTIISLQGRKSPYILRAKELISQGYIGDINSIEIAGNGGWYGYERPVKSPKYIYEIGNGVDLVTTTFGHTIDILQYMTSSYFSRINAMVFNNIPEQELIDERGNRLGQRVPKTVPDHLLFQGTLLNGNVPVSCSFKGGKPTKKFTKNLVIDIHGTKGDLKLEGDAGFAEISNLVLYYSGTRANDFPLANGQQAPLDPGYDAGKEIMEVYHLRNYNAIVGNIHRLYQSISDFHFNTKKIPELPSQFVMQGFDFEGFPTLMDALILHRLIESVYKSNMMGSTLNVSNISHYSL
partner: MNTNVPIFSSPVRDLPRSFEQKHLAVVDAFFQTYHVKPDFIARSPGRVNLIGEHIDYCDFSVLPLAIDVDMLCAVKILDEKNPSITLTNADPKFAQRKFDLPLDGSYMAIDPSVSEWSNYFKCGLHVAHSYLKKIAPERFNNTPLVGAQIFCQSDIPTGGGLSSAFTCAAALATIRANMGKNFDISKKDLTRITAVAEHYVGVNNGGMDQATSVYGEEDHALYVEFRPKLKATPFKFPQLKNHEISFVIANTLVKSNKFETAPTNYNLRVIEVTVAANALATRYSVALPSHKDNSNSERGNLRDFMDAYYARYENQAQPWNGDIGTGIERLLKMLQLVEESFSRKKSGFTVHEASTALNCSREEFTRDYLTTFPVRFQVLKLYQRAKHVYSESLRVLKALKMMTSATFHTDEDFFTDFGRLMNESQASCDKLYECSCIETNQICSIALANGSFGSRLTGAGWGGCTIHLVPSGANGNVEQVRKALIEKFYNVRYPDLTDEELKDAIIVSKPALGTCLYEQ

The variants in this experiment derive from B1. As to conditions: with gal3_yeast GAL3, P13045.
In the case of MDYNKRSSVSTVPNAAPIRVGFVGLNAAKGWAIKTHYPAILQLSSQFQITALYSPKIETSIATIQRLKLSNATAFPTLESFASSSTIDMIVIAIQVASHYEVVMPLLEFSKNNPNLKYLFVEWALACSLDQAESIYKAAAERGVQTIISLQGRKSPYILRAKELISQGYIGDINSIEIAGNGGWYGYERPVKSPKYIYEIGNGVDLVTTTFGHTIDILQYMTSSYFSRINAMVFNNIPEQELIDERGNRLGQRVPKTVPDHLLFQGTLLNGNVPVSCSFKGGKPTKKFTKNLVIDIHGTKGDLKLEGDAGFAEISNLVLYYSGTRANDFPLANGQQAPLDPGYDAGKEIMKVYHLRNYNAIVGNIHRLYQSISDFHFNTKKIPELPSQFVMQGFDFEGFPTLMDALILHRLIESVYKSNMMGSTLNVSNISHYSL [E351K], the “effect of a mutation on the interaction” value was “with no effect”.
